The target in assay [1] is p53^WT, p53^R175H, p53^R248Q, p53^R273H and p53^R280K (His-tagged recombinant proteins, as a group). In words: ELISA, His-tagged recombinant proteins. A general note: An ELISA detects its analyte on a solid surface through an enzyme-linked reagent.
Assay [2] deals with the mutants (p53 mutants in whole cell lysates of SKBR3, MDA-MB-231, MDA-MB-468 and HCC70, as a group). In words: cell-based or functional assay.
Assay [3] concerns the target p53WT and the mutants (p53 in whole cell lysates of CAL-51, SKBR3, MDA-MB-231, MDA-MB-468 and HCC70, as a group). In words: IP of all p53 with excess antibody, WB of PEPD in the precipitate against input.

B1: His-tagged recombinant human PEPD (prolidase, peptidase D) (enzyme, UniProt P12955 1-493, looked up)
chain: MAAATGPSFWLGNETLKVPLALFALNRQRLCERLRKNPAVQAGSIVVLQGGEETQRYCTDTGVLFRQESFFHWAFGVTEPGCYGVIDVDTGKSTLFVPRLPASHATWMGKIHSKEHFKEKYAVDDVQYVDEIASVLTSQKPSVLLTLRGVNTDSGSVCREASFDGISKFEVNNTILHPEIVECRVFKTDMELEVLRYTNKISSEAHREVMKAVKVGMKEYELESLFEHYCYSRGGMRHSSYTCICGSGENSAVLHYGHAGAPNDRTIQNGDMCLFDMGGEYYCFASDITCSFPANGKFTADQKAVYEAVLRSSRAVMGAMKPGVWWPDMHRLADRIHLEELAHMGILSGSVDAMVQAHLGAVFMPHGLGHFLGIDVHDVGGYPEGVERIDEPGLRSLRTARHLQPGMVLTVEPGIYFIDHLLDEALADPARASFLNREVLQRFRGFGGVRIEEDVVVTDSGIELLTCVPRTVEEIEACMAGCDKAFTPFSGPK
The Kd is the equilibrium constant for the complex coming apart. In the case of B1, the dissociation constant Kd in assay [1] lay in the range of 145 to 185 nM.

B2: PEPD in human breast cancer cells (endogenous, in cell lysates, cytosol or nuclear extracts), P12955 2-493 (enzyme, UniProt P12955 2-493, looked up)
chain: AAATGPSFWLGNETLKVPLALFALNRQRLCERLRKNPAVQAGSIVVLQGGEETQRYCTDTGVLFRQESFFHWAFGVTEPGCYGVIDVDTGKSTLFVPRLPASHATWMGKIHSKEHFKEKYAVDDVQYVDEIASVLTSQKPSVLLTLRGVNTDSGSVCREASFDGISKFEVNNTILHPEIVECRVFKTDMELEVLRYTNKISSEAHREVMKAVKVGMKEYELESLFEHYCYSRGGMRHSSYTCICGSGENSAVLHYGHAGAPNDRTIQNGDMCLFDMGGEYYCFASDITCSFPANGKFTADQKAVYEAVLRSSRAVMGAMKPGVWWPDMHRLADRIHLEELAHMGILSGSVDAMVQAHLGAVFMPHGLGHFLGIDVHDVGGYPEGVERIDEPGLRSLRTARHLQPGMVLTVEPGIYFIDHLLDEALADPARASFLNREVLQRFRGFGGVRIEEDVVVTDSGIELLTCVPRTVEEIEACMAGCDKAFTPFSGPK
In assay [2], B2 showed a cells killed by PEPD siRNA after 72 h (trypan blue assay), cells without PEPD^G278D of 65 to 79%.

B3: PEPD in human breast cancer cells (endogenous, in cell lysates, cytosol or nuclear extracts) (enzyme, UniProt P12955 2-493, looked up)
chain: B2 chain
Take B3: in assay [3], the percent of PEPD that binds to p53 was in the range of 6 to 9%.

Source of the values: patent publication US20220372490A1.
